The text below walks through data of doi:10.1101/2022.05.31.494188.

In this experiment the target is Recombinant envelope glycoprotein gp120 from HIV-1 (CM235) (HIV-1 (CM235)). Description: ELISA. A general note: An ELISA detects its analyte on a solid surface through an enzyme-linked reagent.

Take “Aglycosylated Avaren-Fc variant (AvFc^Δgly), N200Q (Fc fusion)”: the EC50 (commonly the concentration that produces a half-maximal response) amounted to 0.061 nM.

For the substance “Avaren-Fc produced in glycoengineered ΔXylT/ΔFucT N. benthamiana (AvFc^ΔXF) (Fc fusion)”, the EC50 is 0.048 nM.

With “Avaren-Fc produced in wild-type N. benthamiana (AvFc^WT) (Fc fusion)”, the EC50 is 0.051 nM.
